This passage reports HNSTD, tumor inhibitory effect and IC50 results from patent EP4785962A1, “ANTIBODY-DRUG CONJUGATE TARGETING TROP2, AND PREPARATION METHOD AND USE THEREFOR” (priority 2023, dated 2025).

The conditions of data set [1]: once every three weeks for a total of 3 times; WO2020240467A1; cited from earlier work.
The subject of data set [2] is Human gastric cancer cell line NCI-N87. Kind of data set: Mouse xenograft tumor model NCI-N87. To be noted: intraperitoneal injection. The data set is classed as in vivo, immunodeficient mice CB17-SCID. As to the method:
• 1. Mice: immunodeficient mice CB17-SCID (Vital River) aged 6-8 weeks were placed in an SPF experimental environment for 3-5 days before the experiment to better adapt to the current living environment. In all experiments, the long and short diameters of the tumor were measured twice a week using a vernier caliper, and the tumor volume (mm^3) was calculated from the measured data. The calculation formula is as follows: Tumor volume(mm^3) = 0.5 × long diameter(mm) × short diameter(mm) × short diameter(mm) [formula] • 2. Human gastric cancer cell line NCI-N87 (ATCC) cells were resuspended in 1× PBS (Gibco, 10010049) at an appropriate concentration, and the tumor cells were implanted subcutaneously in the right abdomen of the mice at an inoculation amount of 2×10^6 /mouse. When the tumor volume reached 150-200 mm^3, the mice were divided into groups such that the average initial administration volume of each group was substantially the same. After grouping, different doses of antibody-drug conjugates hRs7-DXd, hRS7-MB3 and hTINA1-DXd, or control-drug conjugates IgG-MB3, IgG-DXd and IgG control were administered by intraperitoneal injection. […] Compared with hRS7-DXd, hRS7-MB3 has a stronger tumor inhibitory effect. […] Non-small cell lung cancer cell line HCC827 cells purchased from ATCC were inoculated subcutaneously into mice (2×10^6 /mouse), and when the tumor volume reached 120-150 mm^3, the mice were grouped and administered. Different doses of the antibody-drug conjugate and the control drug were intraperitoneally injected into the mice, and the administration was performed only once throughout the experiment. The growth status of the mice was observed, and the changes in tumor volume of the mice were measured. […] The lung squamous cell carcinoma cell line LK-2 (CBP60105) purchased from Nanjing Cobioer Biosciences was implanted subcutaneously in the right abdomen of the mice at an inoculation amount of 3 × 10 ^6 cells/mouse. When the tumor volume reached 150-200 mm^3, the mice were divided into groups such that the average initial administration volume of each group was substantially the same. The mice were administered only once throughout the experiment and injected intraperitoneally at a dose of 10 mg/kg. IgG-MB3 or IgG-DXd was used as a negative control. It was observed that two TROP2-targeted ADCs were also able to delay tumor growth in a tumor model with relatively low TROP2 expression (FIG. 7). […] The pancreatic cancer cell line BxPC3 cells purchased from ATCC were implanted subcutaneously in the right abdomen of the mice at an inoculation amount of 3 × 10 ^6 cells/mouse. […]

Data set [3] concerns human hypopharyngeal carcinoma squamous cell line FaDu. Description: In vitro cytotoxicity test, FaDu cells, 6 days. Format: cell-based. To be noted: 6 days of culture. As to the method:
10% FBS (SH30406.05, HYCLONE) was added to RPMI 1640 (22400-071, Gibco), and the mixture was mixed well to prepare a BxPC3 cell (ATCC) growth medium. BxPC3 or FaDu cells were adjusted to a concentration of 50000 cells/mL with a growth medium, seeded into a 96-well white-bottom plate (167008, NUNC) at 50 µL per well (2500 cells/well), and incubated overnight in an incubator at 37 °C. The antibody was diluted with growth medium and serially diluted 5-fold from 200 nM (2×) to obtain 9 gradients, with the final concentration being […]. The diluted antibody-drug conjugate or control was added at 50 µL/well, and the total volume was 100 µL. […] The cell pellet was fully lysed by shaking on a plate shaker for 5 min, and the luminescence signal was stabilized by standing at room temperature for 10 min. The culture plate was tested on a microplate reader (spectra MAX i3x, Molecular Divices), the […] were taken, and the cell viability was calculated. […]
The cell proliferation inhibition rate after 6 days of culture was calculated using the following formula.
Cell proliferation inhibition rate (%) = […], where a: the average value of experimental sample-added wells after 6 days of culture; b: the average value of control medium-added wells after 6 days of culture. The data were fitted by GraphPad Prism and the IC50 of the drug was calculated (Table 4).

In data set [4] the test system is pancreatic cancer cell line BxPC3. Kind of data set: Mouse xenograft tumor model BxPC3. The data set is classed as in vivo, immunodeficient mice CB17-SCID. Particulars: low dose (3 mg/kg), intraperitoneal, single administration. As to the method: • 1. Mice: immunodeficient mice CB17-SCID (Vital River) aged 6-8 weeks were placed in an SPF experimental environment for 3-5 days before the experiment to better adapt to the current living environment. In all experiments, the long and short diameters of the tumor were measured twice a week using a vernier caliper, and the tumor volume (mm^3) was calculated from the measured data. The calculation formula is as follows: Tumor volume(mm^3) = 0.5 × long diameter(mm) × short diameter(mm) × short diameter(mm) [formula] • 2. Human gastric cancer cell line NCI-N87 (ATCC) cells were resuspended in 1× PBS (Gibco, 10010049) at an appropriate concentration, and the tumor cells were implanted subcutaneously in the right abdomen of the mice at an inoculation amount of 2×10^6 /mouse. When the tumor volume reached 150-200 mm^3, the mice were divided into groups such that the average initial administration volume of each group was substantially the same. After grouping, different doses of antibody-drug conjugates hRs7-DXd, hRS7-MB3 and hTINA1-DXd, or control-drug conjugates IgG-MB3, IgG-DXd and IgG control were administered by intraperitoneal injection. […] Compared with hRS7-DXd, hRS7-MB3 has a stronger tumor inhibitory effect. […] The growth status of the mice was observed, and the changes in tumor volume of the mice were measured. […]

B1: hTINA1-DXd: control ADC: antibody hTINA1 conjugated with Linker-DXd, average DAR 4.3; TROP2-ADC from Daiichi Sankyo (conjugate, chains of the INN, looked up)
VH: QVQLVQSGAEVKKPGASVKVSCKASGYTFTTAGMQWVRQAPGQGLEWMGWINTHSGVPKYAEDFKGRVTISADTSTSTAYLQLSSLKSEDTAVYYCARSGFGSSYWYFDVWGQGTLVTVSS
VL: DIQMTQSPSSLSASVGDRVTITCKASQDVSTAVAWYQQKPGKAPKLLIYSASYRYTGVPSRFSGSGSGTDFTLTISSLQPEDFAVYYCQQHYITPLTFGQGTKLEIK
modifications: deruxtecan (Linker-DXd), DAR 4.3
notes: control ADC: antibody hTINA1 conjugated with Linker-DXd, average DAR 4.3; TROP2-ADC from Daiichi Sankyo
What is called IC50 is the point on the concentration scale where inhibition reaches its midpoint. The low end stands for higher potency, the high end for lower potency. On to B1, for which, in data set [1], the HNSTD is given as 30 mg/kg. Also, the tumor inhibitory effect entry in data set [2] (high-dose group (3 mg/kg)) is on record as “comparable tumor inhibitory effects”; in data set [2] (low dose (1 mg/kg), compared with IgG-MB3 and IgG-DXd) it was “a certain degree of tumor inhibitory effect”; in data set [4] it was “equivalent tumor inhibitory effects”. 1.5 nM corresponded to half-maximal inhibition in data set [3] (IC50).
